The record followed here is publication PMC6624267.

First the molecules themselves.
B1: CARD9^2−97 (CARD9 CARD alone), wild type [human] / itself (parent)
chain: SDYENDDECWSVLEGFRVTLTSVIDPSRITPYLRQCKVLNPDDEEQVLSDPNLVIRKRKVGVLLDILQRTGHKGYVAFLESLELYYPQLYKKVTGK

In this assay the parent is B1. Put plainly: polymerization assay (absorbance at 350 nm). Particulars: with itself; 1 mM D43R/K58D + EDTA (parent trace is 150 uM WT + EDTA); 50 mM Tris, 150 mM NaCl, 0.5 mM TCEP, pH 7.0; 25 °C; read off a plot.
With chain 1 D42R K57D, the response came to 1.7 A350.
